Experimental findings from paper PMC11466669 (The Journal of Biological Chemistry, 2024) are described below.

Series [1] deals with T1, MsRuvC WT (Mycobacterium smegmatis mc2 155) (UniProt A0QWH4).
T1 sequence: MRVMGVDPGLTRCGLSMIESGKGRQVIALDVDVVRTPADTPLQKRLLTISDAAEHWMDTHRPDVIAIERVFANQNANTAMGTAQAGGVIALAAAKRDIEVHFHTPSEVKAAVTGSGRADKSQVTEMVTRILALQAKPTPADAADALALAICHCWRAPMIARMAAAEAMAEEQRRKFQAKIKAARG
Nature of the series: SPR.

For another series, the target named is T2, MsRuvC WT (Mycobacterium smegmatis mc2 155, UniProt A0QWH4 1-185).
T2 sequence: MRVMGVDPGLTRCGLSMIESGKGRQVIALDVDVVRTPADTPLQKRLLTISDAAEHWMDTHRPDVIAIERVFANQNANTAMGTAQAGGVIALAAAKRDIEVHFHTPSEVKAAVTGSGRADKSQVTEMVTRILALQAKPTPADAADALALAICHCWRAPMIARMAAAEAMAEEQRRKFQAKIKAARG
The series can be described thus: MST.

The target of the next series is T3, MsRuvC-E68A (Mycobacterium smegmatis mc2 155, UniProt A0QWH4 1-185, E68A).
T3 sequence: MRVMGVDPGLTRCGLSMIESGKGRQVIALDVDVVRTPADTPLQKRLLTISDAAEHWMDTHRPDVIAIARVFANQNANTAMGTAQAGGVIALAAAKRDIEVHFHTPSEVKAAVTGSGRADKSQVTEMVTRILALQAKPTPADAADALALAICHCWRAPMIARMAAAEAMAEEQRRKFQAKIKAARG
The series can be described thus: MST.

The target of another series is T4, MsRuvC-D7A (Mycobacterium smegmatis mc2 155, UniProt A0QWH4 1-185, D7A).
T4 sequence: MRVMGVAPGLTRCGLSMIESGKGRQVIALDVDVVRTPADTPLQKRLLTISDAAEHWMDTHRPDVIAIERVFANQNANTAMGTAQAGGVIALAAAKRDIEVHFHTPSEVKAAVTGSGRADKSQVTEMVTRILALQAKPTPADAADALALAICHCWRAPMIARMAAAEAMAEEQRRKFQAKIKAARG
The series can be described thus: MST.

The series “SEC” deals with the molecule itself. The series can be described thus: SEC.

As for 5'-flap structure, the dissociation constant Kd in series [1] turned out to be 410 nM.

dsDNA with 5'-ssDNA overhang displayed a Kd in series [1] of 201 nM.

3'-flap structure (SPR) displayed a dissociation constant (Kd) in series [1] of 296 nM.

Turning to Replication fork, in series [1], the Kd came out at 203 nM.

Splayed-arm duplex came in with a dissociation constant Kd in series [1] of 480 nM.

dsDNA with 3'-ssDNA overhang came in with a Kd in series [1] of 263 nM.

B1: Mobile HJ (MST) (structured_DNA)
DNA 1: GACGCTGCCGAATTCTACCAGTGCCTTGCTAGGACATCTTTGCCCACCTGCAGGTTCACCC
DNA 2: TGGGTGAACCTGCAGGTGGGCAAAGATGTCCTAGCAATGTAATCGTCAAGCTTTATGCCGTT
DNA 3: CAACGGCATAAAGCTTGACGATTACATTGCTAGGACATGCTGTCTAGAGGATCCGACTATCGA
DNA 4: ATCGATAGTCGGATCCTCTAGACAGCATGTCCTAGCAAGGCACTGGTAGAATTCGGCAGCGT
On to B1, for which the equilibrium dissociation constant (Kd) stood at 580 ± 270 nM with MsRuvC WT, 300 ± 110 nM with MsRuvC-E68A and 650 ± 170 nM in the series with MsRuvC-D7A.

B2: Mycobacterium smegmatis RuvC (enzyme)
chain: MRVMGVDPGLTRCGLSMIESGKGRQVIALDVDVVRTPADTPLQKRLLTISDAAEHWMDTHRPDVIAIERVFANQNANTAMGTAQAGGVIALAAAKRDIEVHFHTPSEVKAAVTGSGRADKSQVTEMVTRILALQAKPTPADAADALALAICHCWRAPMIARMAAAEAMAEEQRRKFQAKIKAARG
In the case of B2, the “stoichiometry N” value in “SEC” is 2.

B3: MsRuvC-D7A (enzyme)
chain: MRVMGVAPGLTRCGLSMIESGKGRQVIALDVDVVRTPADTPLQKRLLTISDAAEHWMDTHRPDVIAIERVFANQNANTAMGTAQAGGVIALAAAKRDIEVHFHTPSEVKAAVTGSGRADKSQVTEMVTRILALQAKPTPADAADALALAICHCWRAPMIARMAAAEAMAEEQRRKFQAKIKAARG
As to B3, the “stoichiometry N” value in the series “SEC” worked out at 2.

B4: MsRuvC-E68A (enzyme)
chain: MRVMGVDPGLTRCGLSMIESGKGRQVIALDVDVVRTPADTPLQKRLLTISDAAEHWMDTHRPDVIAIARVFANQNANTAMGTAQAGGVIALAAAKRDIEVHFHTPSEVKAAVTGSGRADKSQVTEMVTRILALQAKPTPADAADALALAICHCWRAPMIARMAAAEAMAEEQRRKFQAKIKAARG
As to B4, the “stoichiometry N” value in “SEC” was found to be 2.
